# Experimental data reported in US12582683B2, “Prostate neoantigens and their uses” (Jansen Biotech, Inc., priority 2019, dated 2026).
# B1: VFFKRAAEGFFRMNKLKESSDTNPKPYCMAAPMGLTENNRNRKKSYRETNLKAVSWPLNHT [P77] (peptide, listed as Homo sapiens)
# chain: VFFKRAAEGFFRMNKLKESSDTNPKPYCMAAPMGLTENNRNRKKSYRETNLKAVSWPLNHT
# notes: AR-V3
# Experiments:
# HLA-A*24:02 = HLA-A*24:02 (Homo sapiens, UniProt P04439, D101N/D140Y/D185E/E176V/E190D/F33S/G103R/G107R/I119L/I121M/I306V/K335N/L105A/L180Q/L300P/N151K/N90K/Q86E/Q94H/R106L/R138H/R89G/T104I/T345S/V100E/W191G/Y123F); experiment: In vitro binding of neoantigens to class I MHC (UV peptide exchange, HLA class I ELISA); conditions: 100% = same binding affinity as positive control peptide
# Description: (§1) In Vitro Binding of Neoantigens to Class I MHC
# (§2) The 9 mer peptides identified by bioinformatics analysis were analyzed for their binding propensities to 6 common HLA class I alleles (HLA-A*01:01, A*02:01, A*03:01, A*24:02, B*07:02, B*08:01). The principle of the method is briefly described below and consists of two parts, one involving exchange of peptide with a positive control induced by Ultraviolet (UV) radiation, and the second is an enzyme immunoassay to detect stable HLA-peptide and empty HLA complexes.
# (§3) HLA-bound peptides are critical for the stability of the HLA complex.
# (§4) The exchange efficiency between the peptide of interest and Pos was analyzed using an HLA class I ELISA. The combined technologies allowed the identification of ligands for an HLA molecule of interest which are potentially immunogenic.
# (§5) The UV control represented UV-irradiation of conditional HLA class I complex in the absence of a rescue peptide. […] To this end streptavidin was bound onto polystyrene microtiter wells. After washing and blocking, HLA complex present in exchange reaction mixtures or ELISA controls was captured by the streptavidin on the microtiter plate via its biotinylated heavy chain. Non-bound material was removed by washing. Subsequently, horseradish peroxidase (HRP)-conjugated antibody to human B2M was added. […] In the latter case B2M was removed during the washing step. After removal of non-bound HRP conjugate by washing, a substrate solution was added to the wells. A coloured product formed in proportion to the amount of intact HLA complex present in the samples. After the reaction was terminated by the addition of a stop solution, absorbance was measured in a microtiter plate reader. […] Suboptimal HLA binding of peptides with a moderate to low affinity for HLA class I molecules can also be detected by this ELISA technique (Rodenko, B et al. (2006) Nature Protocols 1: 1120-32).
# (§6) Binding of select neoepitopes to HLA-A*01:01, HLA-A* 02:01, HLA-A* 03:01, HLA-A*24:02, HLA-1B*07:02 and HLA-1B*08:01 was evaluated using the assay described in Example 1. […] As a criterion for further evaluation, peptides with an exchange rate of at least 10% with the corresponding Pos peptide for at least one of the 6 HLA alleles that we considered for further evaluation. […] Higher percentages correspond to stronger binding to the HLA allele.
# HLA-A*02:01 = HLA-A*02:01 (Homo sapiens, UniProt P04439, D140Y/D185E/D98H/E176V/E277Q/G131W/G231S/I119V/I121R/I166T/I218V/L300P/L318F/N151K/N90K/P208A/P217A/Q86G/Q94H/R138H/R169H/T345S); experiment: as above; conditions: 100% = same binding affinity as positive control peptide
# Description: as §1, §2, §3, §4, §5, §6
# HLA-A*01:01 = HLA-A*01:01 (Homo sapiens, UniProt P04439, A114D/A174V/A182V/D101N/D185E/E176A/E190D/L180R/Q94H/R68K/S129P/T187R/V100A/V91M/W191G); experiment: as above; conditions: 100% = same binding affinity as positive control peptide
# Description: as §1, §2, §3, §4, §5, §6
# HLA-A*03:01 = HLA-A*03:01 (Homo sapiens, UniProt P04439); experiment: as above; conditions: 100% = same binding affinity as positive control peptide
# Description: as §1, §2, §3, §4, §5, §6
# HLA-B*07:02 = HLA-B*07:02 (Homo sapiens, UniProt P01889); experiment: as above; conditions: 100% = same binding affinity as positive control peptide
# Description: as §1, §2, §3, §4, §5, §6
# [1] = tested on: CD8+ T cells in PBMCs from patients with metastatic castrate-resistant prostate cancer; experiment: Patient PBMC restimulation assay (in vitro immunogenicity of neoantigens); assay type: cell-based, human; set-up: Maximum frequency of TNFα+IFNγ+CD8+ T cells: unit not given here; conditions: for Maximum fold change over: fold change over negative control, highest across the PBMC donors evaluated, 9 mer peptide; for Maximum frequency of TNFα+IFNγ+CD8+ T cells: greatest frequency among all tested PBMC donors, negative control 0.011-0.8
# Description: In Vitro Immunogenicity Assessment of Neoantigens (“Patient PBMC Restimulation Assay”)
# PBMCs from human patients with metastatic castrate-resistant prostate cancer were thawed using media (RPMI 1640 supplemented with Glutamax, 10% HI FBS, and 1× Sodium Pyruvate). Cells were counted and plated in a 96 well round bottom microplate at a concentration of 250,000 viable cells per well. Lyophilized peptides were solubilized in 100% DMSO and diluted in media to 10 μg/mL. Neoantigen peptides were added in equal volume to PBMCs for a final concentration of 5 μg/mL. CEF Peptide Pool “Plus” (Cellular Technologies, Ltd.) was utilized as a positive control and DMSO at the same final concentration as the experimental peptides was utilized as a negative control. Human IL-15 (Peprotech) was added to all wells at final concentration of 10 ng/mL.
# Plates were incubated at 37° C. (5% CO2) for a total of 13 days. Media was refreshed every 2 days with IL-15 (10 ng/mL final concentration) and IL-2 (R&D systems, 10 IU/mL final concentration). On day 12, PBMCs were re-stimulated with identical experimental peptides or controls, at same concentration as peptide stimulation on Day 1. After 1-hour incubation, protein Inhibitor Cocktail (eBioscience) was added to every well and plate was incubated overnight.
# On day 13, cells were stained for intracellular flow cytometry analysis. The cells were washed with PBS and stained with Live/Dead Fixable Aqua Dead Cell stain (Thermo-Fisher). Following the live/dead stain, cells were blocked using Biotin-Free Fe Receptor Blocker (Accurate Chemical & Scientific Corp). Extracellular cellular flow panel (1 μL/antibody per well in 50 μL) consisted of CD3 PerCP-Cy5.5 (Biolegend), CD4 BV421 (Biolegend), and CD8 APC-Cy7 (Biolegend). After extracellular staining, cells were fixed using Foxp3/Transcription Factor Staining Buffer Set (eBioscience) and stained for intracellular proteins (1:50 dilution) using TNFα FITC (R&D Systems) and IFNγ BV785 (Biolegend). Cells were washed and resuspended in stain buffer and analyzed using a BD Celesta flow cytometer.
# Flow cytometry cell staining analysis was completed using FlowJo v10. Cells were gated on live, singlet, CD3+ cells. The CD8+ T cells were analyzed for TNFα/IFNγ expression and the frequency of double positive TNFα/IFNγ CD8+ T cells was recorded. Responses were assessed to be positive when the frequency of double positive TNFα/IFNγ CD8+ T cells due to stimulation with an experimental peptide was increased greater than or equal to 2-fold over the DMSO only negative control for that patient. Peptides were analyzed in 1 to 7 patient samples.
# The 9 mer fragments shown in Table 13 were assessed for their ability to activate T cells using the Patient PBMC restimulation assay described in Example 1 using TNFα and IFNγ production by CD8^+ T cells as a readout. Self-antigens shown in Table 15 were also used in the assays. […] PBMCs from ten patients were evaluated.
Molecule,"Exchange rate with Pos peptide, HLA-A*24:02 (HLA-A*24:02)","Exchange rate with Pos peptide, HLA-A*02:01 (HLA-A*02:01)","Exchange rate with Pos peptide, HLA-A*01:01 (HLA-A*01:01)","Exchange rate with Pos peptide, HLA-A*03:01 (HLA-A*03:01)","Exchange rate with Pos peptide, HLA-B*07:02 (HLA-B*07:02)",Maximum fold change over [1],Maximum frequency of TNFα+IFNγ+CD8+ T cells [1],"Immunogenic ([1]; patient PBMC restimulation, CD8+ T cells)"
"CYLRRQKRLKCEKQPGA (listed as Homo sapiens) [Neoantigen P60, FOXA1.p.F266L]",0.9%,7.9%,3.1%,36.6%,6.1%,2.08,0.340,
"DDRNTFDIVWWCPMSRLRLALTVPPSTTTTCVTVPAWAA [P46] (listed as Homo sapiens) [Neoantigen P46, TP53 (R213D)]",−0.4%,14.4%,,10.3%,64.8%,2.33,0.140,
"DSSGNLLERNSFEVRV (listed as Homo sapiens) [Neoantigen P73, TP53 (G266E)]",0.5%,89.2%,2.1%,3.5%,8.7%,2.97,0.110,
"GVPGDSTRRAVRRMNTF [P17] (listed as Homo sapiens) [Neoantigen P17, MSMB-NOCA4]",0.1%,,4.9%,3.8%,38.7%,,0.130,
"GYLRMQGLMAQRLLLR (listed as Homo sapiens) [Neoantigen P97, FOXRED2-TXN2]",0.1%,4.6%,2.5%,39%,7%,4.55,0.160,
"LHPDSGNMVENGCYLRR (listed as Homo sapiens) [Neoantigen P59, FOXA1 (F254V)]",,,,,,10.75,3.010,
"LHPQRETFTPRWSGANYWKLAFPVGAEGTFPAAATQRGVVRPA (listed as Homo sapiens) [Neoantigen P27, FAM126B-ORC2]",,,,,,3.43,0.430,
"MAGGVLRRLLCREPDRDGDKGASREETVVPLHIGDPVVLPGIGQCYSALF (listed as Homo sapiens) [Neoantigen P37, TSTD1-F11R]",,,,,,3.13,1.160,
"MFENGCYLGRQKRFKCE (listed as Homo sapiens) [Neoantigen P61, FOXAl.p.R261G]",90.3%,5.8%,1.7%,2.1%,,,0.084,
"MMAEHSVHVPKILSGK (MMAEIISVHVPKILSGK; listed as Homo sapiens) [Neoantigen P58, AR (Q903H)]",0.2%,11.8%,2.5%,32.5%,,,5.370,
"NSKMALNSLNSIDDAQLTRIAPPRSHCCFWEVNAP (listed as Homo sapiens) [Neoantigen P35, TMPRSS2-ERG]",,,,,,2.67,0.064,
"PKSEVRAKCKFSILNAK (listed as Homo sapiens) [Neoantigen P56, SPOP (F102C)]",0.5%,8.4%,2.6%,6.8%,82.5%,11.57,1.620,
"QMAVIQYSCMGLMVFAM (listed as Homo sapiens) [Neoantigen P50, AR (W742C)]",,,,,,5.14,0.190,
"SLYHREKQLIAMDSAI (listed as Homo sapiens) [Neoantigen P22, 5LC45A3-ELK4]",0%,46.9%,4.4%,4.8%,8.3%,5.00,0.120,
"VQPIARELYQFTFDLLI (listed as Homo sapiens) [Neoantigen P48, AR.p.H875Y]",0.1%,99.3%,4.3%,4.4%,12.8%,2.33,0.220,
B1,,,,,,3.24,0.160,Yes
